Read-outs that look alike come from different tables or passages of the source.
Tests used:
[1] = in vivo; details: male, Syrian, rat, iv, 5.55 MBq, total radioactivity, Percentage of injected dose per gram (%ID/g)
Experimental: (§1) The total amount of radioactivity injected in each animal was measured by counting the 1 mL syringe before and after the injection in a dose calibrator with fixed geometry. The biodistribution of the solution among tissues was determined by sacrificing four rats at each selected time interval (15, 30, 60 and 120 min) after injection, based on animal care protocols.
(§2) Blood samples were rapidly taken after animal sacrifice. The tissues (heart, kidneys, spleen, stomach, intestine, lung, liver, skin, bone, muscle, thyroid, adrenal glands, salivary gland and pancreas) were weighed and rinsed with normal saline and their activities were determined, using a p-type coaxial HPGe detector, coupled with a multi-channel analyzer, based on Equation 1 ([20]):
(§3) The percentage of the injected dose per gram (%ID/g) for different organs was calculated by dividing the amount of activity in each tissue (A) to the decay-corrected injected activity and the mass of each organ. Four rats were sacrificed at each time interval. All values were expressed as mean ± standard deviation and the data were compared, using student’s t-test.

[2] = cited from earlier work
Experimental: In this regard, in a study by Ugur et al., the absorbed dose of kidneys was calculated to be 1090 mGy/MBq, based on biodistribution studies on AR42J rat pancreatic tumors ([2]), whereas an absorbed dose of 0.082 mGy/MBq was reported in kidneys of patients with disseminated neuroendocrine tumors ([37]). However, the absorbed dose of the pancreas as a somatostatin receptor-positive organ was not evaluated in previous research. || As mentioned earlier, the dose delivered to the pancreas has not been evaluated in previous literature. […] On the other hand, the absorbed dose of adrenal glands was somewhat lower than the value reported in the mentioned study, while being in great accordance with the absorbed dose of liver after ^68Ga-DOTATATE injection (0.015 mGy/MBq) in a study by Walker et al. ([41]). || In the present study, the effective absorbed dose was calculated at 0.026 mSv/MBq, which was higher than the value reported by Sandstrom and colleagues (0.021 mSv/MBq). The lower effective absorbed dose in the mentioned study corresponded to lower organ consideration for dosimetric calculations, compared to the present study. Finally, the dose received by critical organs was well within the acceptable range for diagnostic nuclear medicine procedures ([31], [42]).

[3] = design: species or system human
Experimental: The accumulated source activity for each animal organ was calculated according to Equation 4, where A (t) is the activity of each organ at time t: For this purpose, data points representing the non-decay corrected percentage of the injected dose were created. A linear approximation was applied between the two experimental points of time. The curves were extrapolated to infinity by fitting the tail of each curve to a mono-exponential curve with an exponential coefficient equal to the physical decay constant of ^68Ga. The accumulated activity in animals was calculated by computing the area under the curves, extrapolated to the accumulated activity in human organs, using a method proposed by Sparks et al. (Equation 5) and the standard mean weight of each human organ ([21], [22], [23]): The absorbed dose in human organs was calculated by the Radiation Absorbed Dose Assessment Resource (RADAR) formalism, based on the biodistribution data in rats ([22]): In the equation above, ni is the number of radiations with energy E emitted per nuclear transition, Ei is the energy per radiation (MeV), Qi is the fraction of emitted energy absorbed by the target, m is the mass of the target region (kg) and k is the proportionality constant [drawing 8] DF represents the physical decay characteristics of the radionuclide, the range of emitted radiations and the organ size and configuration, expressed in mGy/MBq.s ([24]). In this study, DF values were obtained from OLINDA/EXM software ([22]). The effective absorbed dose in each organ was calculated, using the following formula: […] where HT is the equivalent absorbed dose in each organ and WT is the tissue-weighing factor, which represents a subjective balance between different stochastic health risks ([25]). WT was obtained from the International Commission on Radiological Protection (ICRP) publication 103 ([26]).

[4] = Biodistribution in Syrian rats after intravenous injection; details: male Syrian rats; for Percentage of injected dose per gram (%ID/g), Blood / Percentage of injected dose per gram (%ID/g), Bone / Percentage of injected dose per gram (%ID/g), Intestine / Percentage of injected dose per gram (%ID/g), Kidneys / Percentage of injected dose per gram (%ID/g), Liver / Percentage of injected dose per gram (%ID/g), Spleen / Percentage of injected dose per gram (%ID/g), Stomach: 5.55 MBq i.v. tail vein, mean ± SD, n = 4
Experimental: as §1, §2, §3

[5] = 5.55 MBq i.v., maximum over 15-120 min, time not stated

C[C@@H](O)[C@@H]1NC(=O)[C@H](CCCCN)NC(=O)[C@@H](Cc2c[nH]c3ccccc23)NC(=O)[C@H](Cc2ccc(O)cc2)NC(=O)[C@@H](NC(=O)[C@@H](Cc2ccccc2)NC(=O)CN2CCN(CC(=O)O)CCN(CC(=O)O)CCN(CC(=O)O)CC2)CSSC[C@@H](C(=O)N[C@H](CO)[C@@H](C)O)NC1=O [^68Ga-DOTATOC, Gallium-68 DOTA-DPhe^1-Tyr^3-Octreotide, metal not drawn]
tissue uptake at 0.25 h ([1]; Adrenal): 0.91 ± 0.05 %ID/g | tissue uptake at 0.5 h ([1]; Adrenal): 0.75 ± 0.06 %ID/g | tissue uptake at 1 h ([1]; Adrenal): 0.6 ± 0.04 %ID/g | tissue uptake at 2 h ([1]; Adrenal): 0.44 ± 0.01 %ID/g | tissue uptake at 0.25 h ([1]; Blood): 4.51 ± 0.21 %ID/g | tissue uptake at 0.5 h ([1]; Blood): 1.98 ± 0.15 %ID/g | tissue uptake at 1 h ([1]; Blood): 1.53 ± 0.11 %ID/g | tissue uptake at 0.25 h ([1]; Bone): 0.95 ± 0.08 %ID/g | tissue uptake at 0.5 h ([1]; Bone): 0.58 ± 0.03 %ID/g | tissue uptake at 2 h ([1]; Bone): 0.05 %ID/g | tissue uptake at 0.25 h ([1]; Heart): 1.68 ± 0.08 %ID/g | tissue uptake at 0.5 h ([1]; Heart): 1.01 ± 0.07 %ID/g | tissue uptake at 1 h ([1]; Heart): 0.73 ± 0.07 %ID/g | tissue uptake at 2 h ([1]; Heart): 0.03 %ID/g | tissue uptake at 0.25 h ([1]; Intestine): 0.48 ± 0.06 %ID/g | tissue uptake at 0.5 h ([1]; Intestine): 0.56 ± 0.05 %ID/g | tissue uptake at 1 h ([1]; Intestine): 0.39 ± 0.04 %ID/g | tissue uptake at 2 h ([1]; Intestine): 0.38 ± 0.04 %ID/g | tissue uptake at 0.25 h ([1]; Kidneys): 11.9 ± 0.21 %ID/g | tissue uptake at 0.5 h ([1]; Kidneys): 8.99 ± 0.13 %ID/g | tissue uptake at 1 h ([1]; Kidneys): 8 ± 0.18 %ID/g | tissue uptake at 2 h ([1]; Kidneys): 2.51 ± 0.1 %ID/g | tissue uptake at 0.25 h ([1]; Liver): 0.79 ± 0.09 %ID/g | tissue uptake at 0.5 h ([1]; Liver): 0.58 ± 0.08 %ID/g | tissue uptake at 1 h ([1]; Liver): 0.46 ± 0.03 %ID/g | tissue uptake at 2 h ([1]; Liver): 0.2 %ID/g | tissue uptake at 0.25 h ([1]; Lung): 0.35 ± 0.06 %ID/g | tissue uptake at 1 h ([1]; Lung): 0.13 ± 0.01 %ID/g | tissue uptake at 2 h ([1]; Lung): 0.02 %ID/g | tissue uptake at 0.25 h ([1]; Muscle): 0.4 ± 0.05 %ID/g | tissue uptake at 2 h ([1]; Muscle): 0.02 %ID/g | tissue uptake at 0.25 h ([1]; Pancreas): 12.8 ± 0.28 %ID/g | tissue uptake at 0.5 h ([1]; Pancreas): 9.55 ± 0.18 %ID/g | tissue uptake at 1 h ([1]; Pancreas): 6.62 ± 0.22 %ID/g | tissue uptake at 2 h ([1]; Pancreas): 5.31 ± 0.15 %ID/g | tissue uptake at 0.25 h ([1]; Salivary gland): 1.22 ± 0.1 %ID/g | tissue uptake at 0.5 h ([1]; Salivary gland): 0.77 ± 0.04 %ID/g | tissue uptake at 1 h ([1]; Salivary gland): 0.54 ± 0.03 %ID/g | tissue uptake at 1 h ([1]; Skin): 0.08 %ID/g | tissue uptake at 2 h ([1]; Skin): 0.03 %ID/g | tissue uptake at 0.25 h ([1]; Spleen): 0.38 ± 0.04 %ID/g | tissue uptake at 0.5 h ([1]; Spleen): 0.93 ± 0.07 %ID/g | tissue uptake at 1 h ([1]; Spleen): 0.16 ± 0.02 %ID/g | tissue uptake at 2 h ([1]; Stomach): 0.17 ± 0.02 %ID/g | tissue uptake at 1 h ([1]; Thyroid): 0.16 ± 0.04 %ID/g | Absorbed dose of kidneys [2]: 0.082 mGy/MBq | Effective absorbed dose [2]: 0.021 mSv/MBq | Effective absorbed dose [3]: 0.026 mSv/MBq | Equivalent absorbed dose in humans, Adrenals [3]: 0.010 mGy/MBq | Equivalent absorbed dose in humans, Bone Surf [3]: 0.008 mGy/MBq | Equivalent absorbed dose in humans, Heart [3]: 0.004 mGy/MBq | Equivalent absorbed dose in humans, Kidneys [3]: 0.074 mGy/MBq | Equivalent absorbed dose in humans, Liver [3]: 0.010 mGy/MBq | Equivalent absorbed dose in humans, Lungs [3]: 0.001 mGy/MBq | Equivalent absorbed dose in humans, Red Marrow [3]: 0.003 mGy/MBq | Equivalent absorbed dose in humans, Small Intestine [3]: 0.008 mGy/MBq | Equivalent absorbed dose in humans, Spleen [3]: 0.009 mGy/MBq | Equivalent absorbed dose in humans, Stomach [3]: 0.003 mGy/MBq | Equivalent absorbed dose in humans, Total Body [3]: 0.008 mGy/MBq

[Cl][68Ga]([Cl])[Cl] [^68GaCl3]
Percentage of injected dose per gram (%ID/g), Blood ([4]; 15 min after injection): 3.18±0.17 %ID/g | Percentage of injected dose per gram (%ID/g), Bone ([4]; 15 min after injection): 0.56±0.06 %ID/g | Percentage of injected dose per gram (%ID/g), Intestine ([4]; 15 min after injection): 0.71±0.06 %ID/g | Percentage of injected dose per gram (%ID/g), Kidneys ([4]; 15 min after injection): 0.70±0.09 %ID/g | Percentage of injected dose per gram (%ID/g), Liver ([4]; 15 min after injection): 0.91±0.02 %ID/g | Percentage of injected dose per gram (%ID/g), Spleen ([4]; 15 min after injection): 0.51±0.09 %ID/g | Percentage of injected dose per gram (%ID/g), Stomach ([4]; 15 min after injection): 0.41±0.11 %ID/g | Percentage of injected dose per gram (%ID/g), Blood ([4]; 30 min after injection): 2.98±0.12 %ID/g | Percentage of injected dose per gram (%ID/g), Bone ([4]; 30 min after injection): 0.91±0.10 %ID/g | Percentage of injected dose per gram (%ID/g), Intestine ([4]; 30 min after injection): 0.82±0.08 %ID/g | Percentage of injected dose per gram (%ID/g), Kidneys ([4]; 30 min after injection): 0.41±0.10 %ID/g | Percentage of injected dose per gram (%ID/g), Liver ([4]; 30 min after injection): 1.50±0.12 %ID/g | Percentage of injected dose per gram (%ID/g), Spleen ([4]; 30 min after injection): 0.70±0.06 %ID/g | Percentage of injected dose per gram (%ID/g), Stomach ([4]; 30 min after injection): 0.56±0.07 %ID/g | Percentage of injected dose per gram (%ID/g), Blood ([4]; 60 min after injection): 2.53±0.11 %ID/g | Percentage of injected dose per gram (%ID/g), Bone ([4]; 60 min after injection): 1.20±0.11 %ID/g | Percentage of injected dose per gram (%ID/g), Intestine ([4]; 60 min after injection): 0.89±0.05 %ID/g | Percentage of injected dose per gram (%ID/g), Kidneys ([4]; 60 min after injection): 1.42±0.12 %ID/g | Percentage of injected dose per gram (%ID/g), Liver ([4]; 60 min after injection): 0.78±0.08 %ID/g | Percentage of injected dose per gram (%ID/g), Spleen ([4]; 60 min after injection): 1.03±0.10 %ID/g | Percentage of injected dose per gram (%ID/g), Stomach ([4]; 60 min after injection): 1.21±0.09 %ID/g | Percentage of injected dose per gram (%ID/g), Blood ([4]; 120 min after injection): 2.44±0.14 %ID/g | Percentage of injected dose per gram (%ID/g), Bone ([4]; 120 min after injection): 1.05±0.09 %ID/g | Percentage of injected dose per gram (%ID/g), Intestine ([4]; 120 min after injection): 0.61±0.07 %ID/g | Percentage of injected dose per gram (%ID/g), Kidneys ([4]; 120 min after injection): 0.91±0.08 %ID/g | Percentage of injected dose per gram (%ID/g), Liver ([4]; 120 min after injection): 0.60±0.05 %ID/g | Percentage of injected dose per gram (%ID/g), Spleen ([4]; 120 min after injection): 1.43±0.12 %ID/g | Percentage of injected dose per gram (%ID/g), Stomach ([4]; 120 min after injection): 1.54±0.14 %ID/g | Activity content in the bone, maximum value [4, 5]: 1.20 %ID/g | Activity content in the stomach, maximum value [4, 5]: 1.54 %ID/g

Source: article PMC4937676 (Asia Oceania Journal of Nuclear Medicine and Biology, 2016)
